# Measurements published in publication PMC6123631.
# Experiments:
# FtFur WT [1] = biological target: T1, FtFur WT (Francisella tularensis FSC198 (100% …, UniProt Q5NIN6 1-140)); experiment: SEC-MALLS-RI; settings: protein: recombinant; tags: none; chain copies: 4; label: none (SEC-MALLS, SAXS)
# FtFur WT [2] = biological target: T1, FtFur WT; experiment: EMSA; settings: protein: recombinant; tags: none; chain copies: 4; label: 32P 5' end (EMSA)
# FtFur WT [3] = biological target: T1, FtFur WT; experiment: EMSA; 10 uM Mn2+; main species one dimer bound; settings: protein: recombinant; tags: none; chain copies: 4; label: 32P 5' end (EMSA)
binder,measurement,setting,value
FurBox (EcFurBox) (dsDNA) DNA 1: GGGGATAATGATAATCATTATCGGG DNA 2: CCCGATAATGATTATCATTATCCCC,binding result,FtFur WT [1],binds
"PfigAL (PfigA, 43 bp) (dsDNA) DNA 1: GGGCTACATGATAATGATAACGAATATCATTATCGTTTATGGG DNA 2: CCCATAAACGATAATGATATTCGTTATCATTATCATGTAGCCC",Kd,FtFur WT [2],~5 nM
PfigAS (dsDNA) DNA 1: GGGGATAATGATAACGAATATCATTATCGGG DNA 2: CCCGATAATGATATTCGTTATCATTATCCCC,binding result,FtFur WT [3],binds
